Results as given in patent US10308692B2, “Variants of GAL2 transporter and their uses” (Johann Wolfgang Goethe-Universität Frankfurt, priority 2014, dated 2019).

B1: N376F: Gal2 variant with amino acid substitution N376F (protein, UniProt P13181 1-574, looked up, variant N376F)
Galactose transporter: MAVEENNMPVVSQQPQAGEDVISSLSKDSHLSAQSQKYSNDELKAGESGSEGSQSVPIEIPKKPMSEYVTVSLLCLCVAFGGFMFGWDTGTISGFVVQTDFLRRFGMKHKDGTHYLSNVRTGLIVAIFNIGCAFGGIILSKGGDMYGRKKGLSIVVSVYIVGIIIQIASINKWYQYFIGRIISGLGVGGIAVLCPMLISEIAPKHLRGTLVSCYQLMITAGIFLGYCTNYGTKSYSNSVQWRVPLGLCFAWSLFMIGALTLVPESPRYLCEVNKVEDAKRSIAKSNKVSPEDPAVQAELDLIMAGIEAEKLAGNASWGELFSTKTKVFQRLLMGVFVQMFQQLTGNNYFFYYGTVIFKSVGLDDSFETSIVIGVVFFASTFFSLWTVENLGHRKCLLLGAATMMACMVIYASVGVTRLYPHGKSQPSSKGAGNCMIVFTCFYIFCYATTWAPVAWVITAESFPLRVKSKCMALASASNWVWGFLIAFFTPFITSAINFYYGYVFMGCLVAMFFYVFFFVPETKGLSLEEIQELWEEGVLPWKSEGWIPSSRRGNNYDLEDLQHDDKPWYKAMLE
B2: N376F + M435I: Gal2 variant with amino acid substitutions N376F and M435I (protein, UniProt P13181 1-574, looked up, variant N376F M435I)
Galactose transporter: MAVEENNMPVVSQQPQAGEDVISSLSKDSHLSAQSQKYSNDELKAGESGSEGSQSVPIEIPKKPMSEYVTVSLLCLCVAFGGFMFGWDTGTISGFVVQTDFLRRFGMKHKDGTHYLSNVRTGLIVAIFNIGCAFGGIILSKGGDMYGRKKGLSIVVSVYIVGIIIQIASINKWYQYFIGRIISGLGVGGIAVLCPMLISEIAPKHLRGTLVSCYQLMITAGIFLGYCTNYGTKSYSNSVQWRVPLGLCFAWSLFMIGALTLVPESPRYLCEVNKVEDAKRSIAKSNKVSPEDPAVQAELDLIMAGIEAEKLAGNASWGELFSTKTKVFQRLLMGVFVQMFQQLTGNNYFFYYGTVIFKSVGLDDSFETSIVIGVVFFASTFFSLWTVENLGHRKCLLLGAATMMACMVIYASVGVTRLYPHGKSQPSSKGAGNCIIVFTCFYIFCYATTWAPVAWVITAESFPLRVKSKCMALASASNWVWGFLIAFFTPFITSAINFYYGYVFMGCLVAMFFYVFFFVPETKGLSLEEIQELWEEGVLPWKSEGWIPSSRRGNNYDLEDLQHDDKPWYKAMLE
B3: N376Y: Gal2 variant with amino acid substitution N376Y (protein, UniProt P13181 1-574, looked up, variant N376Y)
Galactose transporter: MAVEENNMPVVSQQPQAGEDVISSLSKDSHLSAQSQKYSNDELKAGESGSEGSQSVPIEIPKKPMSEYVTVSLLCLCVAFGGFMFGWDTGTISGFVVQTDFLRRFGMKHKDGTHYLSNVRTGLIVAIFNIGCAFGGIILSKGGDMYGRKKGLSIVVSVYIVGIIIQIASINKWYQYFIGRIISGLGVGGIAVLCPMLISEIAPKHLRGTLVSCYQLMITAGIFLGYCTNYGTKSYSNSVQWRVPLGLCFAWSLFMIGALTLVPESPRYLCEVNKVEDAKRSIAKSNKVSPEDPAVQAELDLIMAGIEAEKLAGNASWGELFSTKTKVFQRLLMGVFVQMFQQLTGNNYFFYYGTVIFKSVGLDDSFETSIVIGVVYFASTFFSLWTVENLGHRKCLLLGAATMMACMVIYASVGVTRLYPHGKSQPSSKGAGNCMIVFTCFYIFCYATTWAPVAWVITAESFPLRVKSKCMALASASNWVWGFLIAFFTPFITSAINFYYGYVFMGCLVAMFFYVFFFVPETKGLSLEEIQELWEEGVLPWKSEGWIPSSRRGNNYDLEDLQHDDKPWYKAMLE

What was measured:
[1] = system: EBY.VW4000; assay: Xylose uptake assay with radioactively labelled xylose; type: cell-based, Saccharomyces cerevisiae; conditions: for Vmax: xylose uptake, Michaelis-Menten fit (GraphPad Prism), three replicates, figures give velocity in nmol xylose per minute per milligram cell dry mass; for xylose uptake rate compared to wild type: FIGS. 7 and 8
Source text: FIG. 7: Xylose uptake assay of Gal2_N376Y, N376Y+M435I and Gal2 wild type in EBY.VW4000 (three independent replicates). The uptake velocity is shown in nmol xylose per minute per milligram cell dry mass.
FIG. 8: Xylose uptake assay of Gal2_N376F, N376F+M435I and Gal2 wild type in EBY.VW4000 (three independent replicates). The uptake velocity is shown in nmol xylose per minute per milligram cell dray mass.
Sugar uptake assays were done as described by Bisson et al. (Bisson and Fraenkel, 1983) with modifications according to Walsh et al. (Walsh et al., 1994).
Transformants of strain EBY.VW4000 were grown in selective YEPE to an OD of 1.1-1.6, harvested by centrifugation and washed twice in ice-cold uptake-buffer (RT, 3 min, 3000×g). Cells were kept on ice from here on. The cell pellet was resuspended in ice-cold uptake-buffer to a concentration of 60 mgww/ml and aliquoted to 110 μl. One cell suspension aliquot and one sugar solution were incubated in a water bath at 30° C. for 4-5 min. 100 μl of the cell suspension were pipetted to the sugar solution (50 μl), mixed briefly by pipetting and incubated for 5 (D-[U-^14C]-glucose) or 20 sec (D-[1-^14C]-xylose). The uptake reaction was stopped by transferring 100 μl of the mixture into 10 ml ice-cold quenching-buffer, which was immediately filtered through a Durapore membrane filter (0.22 μm pore size, Millipore). The filter was washed twice with 10 ml ice-cold quenching-buffer, transferred to a scintillation vial containing 4 ml scintillation cocktail (Rotiszint eco plus, Roth) and shaken thoroughly. Additionally to this filter sample (cpmfilter), 10 μl of each reaction were transferred directly to a scintillation vial with 4 ml scintillation cocktail for determination of the total counts in the reaction (cpmtotal). To determine a value for sugar that is bound unspecifically to the cell surface or the filter (cpmblank) a few samples of 33,3 μl sugar solution and 66,6 μl cell suspension were mixed in 10 ml icecold quenching buffer and treated as described above. Radioactivity of all vials was analysed in an Wallac 1409 liquid scintillation counter.
Stocksolutions of 2M, 500 mM or 20 mM glucose or xylose (in H2O) were used to prepare the sugar solutions for the assays (threefold of the desired concentration in the uptake reaction (S, substrate concentration), 50 μl aliquots). Uptake was measured at sugar concentrations 0.2, 1, 5, 25 and 100 mM for glucose and 1, 5, 25, 66, 100, 200 and 500 mM for xylose. Inhibition of xylose uptake by glucose was measured at 25, 66 and 100 mM xylose with additional 25 and 100 mM unlabelled glucose. Sugar solutions contained 0.135 to 0.608 μCi of D-[U-^14C]-glucose (290-300 mCi/mmol) or D-[1-^14C]-xylose (55 mCi/mmol) (American Radiolabeled Chemicals Inc., St. Louis, Mo., USA).
The amount of sugar (Asugar in nmol) taken up during the incubation time (t, in seconds) at a certain sugar concentration (S, in mM): Asugar=((cpmsample−cpmblank)/(cpmtotal·10))·S·100 μl
Transport velocity (in nmol·min^−1·mgww^−1) calculated per milligrams of cell (m, in mgww): V=(Asugar·60 s)/(t·m)
Calculation of Km (Michaelis constant), Vmax (maximal initial uptake velocity) and Ki (inhibitor constant for competitive inhibition) was done by nonlinear regression analysis and global curve fitting in Prism 5 (GraphPad Software, Inc.) with values of three independent measurements.
Xylose uptake of Gal2_N376F, N376F+M435I, N376Y und N376Y+M435I was characterized with a sugar uptake assay. The relevant plasmids were transformed in strain EBY.VW4000. Cells were cultivated in SCM-ura until they reached the exponential growth phase (OD600˜0.6). Then cells were harvested, concentrated to the same OD600 (OD600 35-40), separated into different aliquots and stored on ice.
Three uptake assays (in tripicates) were performed with different concentrations of radioactively labelled xylose. Data were collected and fittet with GraphPad Prism according to Michaelis Menten (FIGS. 7 and 8).

[2] = system: AFY10; assay: Serial dilution drop test on xylose and xylose-glucose media; type: cell-based, Saccharomyces cerevisiae; conditions: 0.2% (2 g/l) xylose
Method: The transformants were cultivated in 5 ml SCE-ura-leu with 2% ethanol at 30°, washed with water and adjusted to an OD600 of 1. Thereof it followed a serial dilution. 5 μl were dropped onto the respective media and it was incubated for five days at 30°. As a control for the dilution SCE-ura-leu with 2% ethanol was taken. The cells of the mutated transporters were dropped onto SCX-ura-leu with 0.2% and 2% D-xylose, as well as SC-ura-leu with 1% D-xylose with 4% D-glucose and SC-ura-leu with 0.2% D-xylose and 2% D-glucose to test their functionality. Furthermore the wild type and Gal2_ep3.1 were used for comparison.
FIG. 5: Drop test of Gal2_M435I in AFY10 after five days at 30°. Several dilutions were dropped from left to right (undiluted, 1:10, 1:100, 1:1000).
FIG. 6: Drop test of Gal2_N376F, N376F+M435I and N376Y+M435I in AFY10 after five days at 30°. Several dilutions were dropped from left to right (undiluted, 1:10, 1:100, 1:1000). But on 20 g/l xylose the order was different (undiluted, 1:100, 1:1000, 1:10).
For easy comparison of growth of different S. cerevisiae strains under various growth conditions a serial dilution spot assay was performed. Cells were grown in liquid culture to exponential phase in appropriate medium, collected by centrifugation (2000×g, 2 min), washed twice with sterile water and then resuspended to an OD600 of 1.0 in selective medium without carbon source. From this cell suspension a ten-fold serial dilution was prepared in selective medium (four dilution steps). 6 μl of each cell suspension were spotted on plates of the media to be examined and allowed to dry. Plates were incubated at 30° C.
To characterize the different constructs which all were verified by sequencing they were transformed together with vector YEp181_pHXT7-optXI_Clos into competent AFY10 cells and drop tests were performed.

Molecule | Vmax [1] | growth on low xylose [2] | xylose uptake rate compared to wild type [1]
B1 | 25.86 | better than that of Gal2_N376Y+M435I | –
B2 | 13.81 | grow the best | reduced uptake rate
B3 | 11.92 | – | strong reduction
